Experiment [1] concerns the target GAL4 activation domain-hsyt11AB fusion encoded by pGAD10-hsyt11AB (human synaptotagmin 11, domains C2A and C2B) (human) (UniProt Q9BT88). The experiment is described as follows: yeast two-hybrid liquid assay (β-galactosidase, n=3).
In experiment [2] the target is GFP-syt11 (GFP fusion of full-length human synaptotagmin XI) (human) [GFP: P42212]. The experiment is described as follows: co-immunoprecipitation with anti-HA agarose, anti-GFP blot.

Chain of GAL4 activation domain-hsyt11AB fusion encoded by pGAD10-hsyt11AB (human synaptotagmin 11, domains C2A and C2B) (human) (Q9BT88 157-431 G231V): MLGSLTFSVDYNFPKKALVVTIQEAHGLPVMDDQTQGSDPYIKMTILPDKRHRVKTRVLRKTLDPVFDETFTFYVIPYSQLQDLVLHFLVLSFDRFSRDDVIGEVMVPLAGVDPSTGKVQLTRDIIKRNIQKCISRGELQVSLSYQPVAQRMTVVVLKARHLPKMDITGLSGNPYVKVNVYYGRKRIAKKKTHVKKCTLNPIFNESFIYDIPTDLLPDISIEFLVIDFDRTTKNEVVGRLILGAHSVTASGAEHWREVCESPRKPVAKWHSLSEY

Regarding “GAL4 binding domain-parkin(1-465) fusion encoded by pGBT9-parkin(1-465) (from UniProt P04386 1-147; O60260 1-465)”, the fold β-galactosidase activity over pGBT9 vector control in experiment [1] turned out to be 20 fold.
For “HA-tagged missense mutated parkin C289G (from UniProt O60260 1-465) (enzyme)”, the fold less interaction compared with parkinC418R in experiment [2] was determined as 2.5 fold less.

Source of the values: patent publication US8138307.
